We go through 3 molecules from article PMC6606567, “Molecular tuning of farnesoid X receptor partial agonism” (Nature Communications, 2019).

Data set [1] concerns the target farnesoid X receptor ligand binding domain (FXR-LBD; isoform 4; amino acids 244-472) (human). Kind of data set: NMR titration; 1H/13C-HSQC of Leu-labeled NCoR and NCoA peptides (50 µM) with FXR-LBD (50 µM) and ivermectin (250 µM); 298 K, 50 mM Tris pH 8.3, 500 mM NaCl, 2 mM TCEP; populations from signal intensities.
Data set [2] has the same target. Description: NMR titration; 1H/13C-HSQC of Leu-labeled NCoR and NCoA peptides (50 µM) with FXR-LBD (50 µM) and CDCA (250 µM); 298 K, 50 mM Tris pH 8.3, 500 mM NaCl, 2 mM TCEP; populations from signal intensities.
Data set [3] shares this target. Description: NMR titration; HSQC of the quaternary mixture of FXR-LBD, antagonist guggulsterone, labeled co-activator (NCoA) and co-repressor (NCoR) peptides; protein:peptide:ligand 50:50:250 µM, 298 K.
Data set [4] has the same target. Description: NMR titration; 1H/13C-HSQC of Leu-labeled NCoR and NCoA peptides (50 µM) with FXR-LBD (50 µM) and fexaramine (250 µM); 298 K, 50 mM Tris pH 8.3, 500 mM NaCl, 2 mM TCEP; populations from signal intensities.
Data set [5] has the same target. Kind of data set: NMR titration; 1H/13C-HSQC of Leu-labeled NCoR and NCoA peptides (50 µM) with FXR-LBD (50 µM) and partial agonist 1 (250 µM); 298 K, 50 mM Tris pH 8.3, 500 mM NaCl, 2 mM TCEP; populations from signal intensities.
For data set [6] the target is unchanged. Description: NMR titration; 1H/13C-HSQC of Leu-labeled NCoR and NCoA peptides (50 µM) with FXR-LBD (50 µM) and GW4064 (250 µM); 298 K, 50 mM Tris pH 8.3, 500 mM NaCl, 2 mM TCEP; populations from signal intensities.
Data set [7] deals with the molecule itself. Description: crystal structure; FXR244-472 (75 µM) incubated with 150 µM partial agonist 1 (DM175), concentrated to 375 µM, then 750 µM NCoA-2 740-752 peptide; hanging drop, 4 °C, 300 mM MgCl2, 100 mM Bis-Tris pH 7, 15-20% PEG 3350, micro seeding.

Consider “Nuclear receptor co-activator 2 peptide (NCoA-2 740-752)”, for which the free co-repressor/free co-activator ratio (part of free co-activator) in data set [1] is 75; in data set [2], 13; in data set [3], 85; in data set [4] it was 23; in data set [5], 70; in data set [6], 14.
Regarding “nuclear receptor co-repressor 1 peptide (NCoR-1, residues 2256-2278)”, the free co-repressor/free co-activator ratio (part of free co-repressor) is 25 in data set [1]; 87 in data set [2]; 15 in data set [3]; 77 in data set [4]; 30 in data set [5]; 86 in data set [6].

B1: farnesoid X receptor ligand binding domain (FXR-LBD; isoform 4; amino acids 244-472) (domain or fragment, human)
chain: ELTPDQQTLLHFIMDSYNKQRMPQEITNKILKEEFSAEENFLILTEMATNHVQVLVEFTKKLPGFQTLDHEDQIALLKGSAVEAMFLRSAEIFNKKLPSGHSDLLEERIRNSGISDEYITPMFSFYKSIGELKMTQEEYALLTAIVILSPDRQYIKDREAVEKLQEPLLDVLQKLCKIHQPENPQHFACLLGRLTELRTFNHHHAEMLMSWRVNDHKFTPLLCEIWDVQ
notes: numbers count on: isoform 4; also called FXR244-472; NR1H4; source: E. coli BL21(DE3) gold, purified (NiNTA, Tev cleavage, Superdex 200); not shown: His6, N-terminal, cleaved
With B1, in data set [7], the binding result is recorded as “binds”.
